Measured values as given in article PMC5951767.

What was measured:
RelA (p65) homodimer = RelA (p65) homodimer (UniProt Q04207 19-321); assay: stopped-flow fluorescence
[1] = target: RelA (p65), subunit of RelA-p50 heterodimer;p50, subunit of RelA-p50 heterodimer (mouse (murine);mouse (murine), UniProt Q04207;P25799 19-321;39-350, |); assay: stopped-flow fluorescence
RelA (p65), subunit of RelA-p50 heterodimer;p50, subunit of RelA-p50 heterodimer, sequence (Q04207 19-321, chain 1 of 2): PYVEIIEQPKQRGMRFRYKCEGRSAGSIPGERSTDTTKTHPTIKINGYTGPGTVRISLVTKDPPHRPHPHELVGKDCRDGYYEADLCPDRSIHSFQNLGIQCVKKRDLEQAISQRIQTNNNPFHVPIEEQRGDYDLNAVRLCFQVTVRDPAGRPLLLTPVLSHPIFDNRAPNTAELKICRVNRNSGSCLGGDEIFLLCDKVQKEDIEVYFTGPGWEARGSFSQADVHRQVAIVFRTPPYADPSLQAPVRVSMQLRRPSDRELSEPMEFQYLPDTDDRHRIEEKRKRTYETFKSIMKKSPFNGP
RelA (p65), subunit of RelA-p50 heterodimer;p50, subunit of RelA-p50 heterodimer, sequence (P25799 39-350, chain 2 of 2): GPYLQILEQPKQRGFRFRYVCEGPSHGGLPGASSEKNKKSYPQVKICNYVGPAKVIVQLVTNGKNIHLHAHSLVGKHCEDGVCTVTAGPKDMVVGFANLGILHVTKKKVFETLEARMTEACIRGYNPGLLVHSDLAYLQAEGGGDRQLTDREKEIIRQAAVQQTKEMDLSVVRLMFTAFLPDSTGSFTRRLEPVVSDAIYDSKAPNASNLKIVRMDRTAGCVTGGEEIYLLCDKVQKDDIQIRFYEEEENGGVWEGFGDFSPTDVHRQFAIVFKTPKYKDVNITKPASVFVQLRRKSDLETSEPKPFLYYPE

RelA (p65) homodimer, sequence (Q04207 19-321): as the sequence (Q04207 19-321, chain 1 of 2) above

B1: IFN-kB hairpin (structured_DNA)
DNA: GGGAAATTCCTCCCCCAGGAATTTCCC
modifications: 5' AmMC6 amino linker
binding result (RelA (p65) homodimer): binds
binding result [1]: binds
